The values below come from patent publication US20240269230A1.

Ends that are not written are not given here.

Assay [1] deals with T1, kappa opioid receptor (the kOR), mouse, with C-terminal GFP (the kOR-EGFP) (mouse), P33534.
T1 chain: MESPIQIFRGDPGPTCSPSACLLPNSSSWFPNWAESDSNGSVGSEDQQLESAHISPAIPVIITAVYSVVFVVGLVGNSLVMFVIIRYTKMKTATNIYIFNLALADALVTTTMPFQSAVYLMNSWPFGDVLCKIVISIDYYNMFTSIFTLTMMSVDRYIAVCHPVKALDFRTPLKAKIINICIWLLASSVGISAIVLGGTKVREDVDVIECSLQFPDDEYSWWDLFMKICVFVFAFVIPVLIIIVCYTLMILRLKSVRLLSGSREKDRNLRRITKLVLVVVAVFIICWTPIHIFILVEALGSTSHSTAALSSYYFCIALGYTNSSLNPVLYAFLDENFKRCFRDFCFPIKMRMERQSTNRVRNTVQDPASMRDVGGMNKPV
The experiment in a line: cell-based or functional assay.

Assay [2] deals with T1, kappa opioid receptor (the kOR), mouse, ….

B1: [T20K]-kalata B1 (peptide)
peptide: GLPVCGETCVGGTCNTPGCKCSWPVCTRN
modifications: not fully specified (bridges); ends and bridges not checked
As to B1, in assay [1], the cAMP assay EC50 (HEK293 cells stably expressing the kOR) stood at 17 µM and the leftward shift in the cAMP potency of the orthosteric ligand U50,488 stood at 9 fold. This molecule came in with a Ki in assay [2] of 2.7 µM.

By Ki is commonly meant the dissociation constant of the complex between target and ligand, obtained from inhibition or displacement. A lower Ki goes with tighter binding.
